± gives the standard deviation of the averaged measurements.
System: ATP
Assay: switch fluorescence ratio, 500 uM ATP over buffer (Cy3 cluster intensity, sum of 5 cycles each) (fold (ratio)); higher = stronger signal-on switching upon ATP binding; sequences stand for … in TCGTCGGCAGCGTCAGATGTGTATAAGAGACAGTTTTTTTTTTTTTTTTTTTTTTTTT…TC
Details: aptamer strand: ATP DNA aptamer (quencher-CACCTGGGGGAGTATTGCGGAGGAAGG + anchor), 100 nM annealed; ATP concentration: 500 uM
Procedure, shortened: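 Imaging in selection buffer was followed by imaging after 15 min with 500 uM ATP at 22 °C, for Cy3-labelled switching-strand clusters annealed to 100 nM quencher-labelled ATP aptamer on a modified Illumina MiSeq flow-cell. Five of these buffer/ATP cycles ran, separated by NaOH stripping and re-annealing. The fluorescence ratio per cluster is summed target-cycle over summed buffer-cycle Cy3 intensity, averaged per switch-domain sequence; clusters outside 100-1000 RFU were removed.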
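Also: ATP exposure 15 min at 22 °C before imaging.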

Row | Sequence | switch fluorescence ratio
1 | GGAGTACAAA | 1.03 ± 0.033
2 | GGAGTATAAG | 0.957 ± 0.012
3 | GGAGTATCCT | 0.981 ± 0.016
4 | GGAGTATTGG | 1.02 ± 0.022
5 | GGAGTCGACG | 1.02 ± 0.012
6 | GGAGTCGTTT | 0.987 ± 0.027
7 | GGAGTCTGGG | 0.981 ± 0.021
8 | GGAGTGCCGT | 1 ± 0.093
9 | GGAGTGCTGG | 0.995 ± 0.032
10 | GGAGTGGTTC | 0.999 ± 0.013
11 | GGAGTTATAT | 1.105 ± 0.01
12 | GGAGTTGCAG | 0.975 ± 0.063
13 | GGAGTTGGAT | 0.98205 ± 0.00015
14 | GGAGTTTAGC | 1.02 ± 0.029
15 | GGAGTTTTGT | 0.9614 ± 0.0087
16 | GGATAAAATT | 0.996 ± 0.015
17 | GGATAAGAAT | 1.02 ± 0.052
18 | GGATAATGAG | 0.961 ± 0.028
19 | GGATAGGACA | 1 ± 0.04
20 | GGATAGGTAC | 1.05 ± 0.04
21 | GGATAGGTAT | 1.02 ± 0.066
22 | GGATAGTGCT | 0.993 ± 0.012
23 | GGATATGGGT | 0.966 ± 0.011
24 | GGATATTGGC | 0.977 ± 0.092
25 | GGATATTGTC | 0.991 ± 0.024

Row | Sequence | switch fluorescence ratio
26 | GGATCACACT | 1.02 ± 0.012
27 | GGATCAGAGA | 1.08 ± 0.023
28 | GGATCCTGGG | 0.993 ± 0.022
29 | GGATCTAGGG | 0.981 ± 0.018
30 | GGATCTGTCG | 0.98 ± 0.037
31 | GGATCTTGGC | 1.02 ± 0.025
32 | GGATCTTGTG | 1.01 ± 0.021
33 | GGATGACAGA | 0.969 ± 0.01
34 | GGATGAGCTG | 0.978 ± 0.052
35 | GGATGCAGCT | 1.12 ± 0.1
36 | GGATGCGCCT | 1.06 ± 0.15
37 | GGATGCTGAT | 1 ± 0.047
38 | GGATGGAGGC | 0.987 ± 0.059
39 | GGATGGGATA | 1 ± 0.016
40 | GGATGGGCTA | 0.999 ± 0.025
41 | GGATGGGGGC | 0.992 ± 0.023
42 | GGATGGGTGT | 1.02 ± 0.034
43 | GGATGGTATG | 1.01 ± 0.015
44 | GGATGGTGCA | 0.94 ± 0.062
45 | GGATGGTGGG | 1.01 ± 0.042
46 | GGATGTAAGT | 0.97 ± 0.017
47 | GGATGTAGGG | 0.999 ± 0.029
48 | GGATGTGTAA | 1.007 ± 0.007
49 | GGATGTGTTT | 0.999 ± 0.029
50 | GGATTAAAAG | 1.01 ± 0.067

Row | Sequence | switch fluorescence ratio
51 | GGATTAATTT | 0.98006 ± 0.00058
52 | GGATTACTAA | 0.99 ± 0.029
53 | GGATTAGGGT | 0.975 ± 0.019
54 | GGATTATGAA | 0.994 ± 0.023
55 | GGATTATGGC | 0.943 ± 0.061
56 | GGATTCTGGA | 0.991 ± 0.031
57 | GGATTGGACG | 0.976 ± 0.016
58 | GGATTGGGCG | 0.986 ± 0.026
59 | GGATTGGGGT | 0.986 ± 0.04
60 | GGATTGTAAT | 0.9956 ± 0.0034
61 | GGATTGTGAA | 1 ± 0.025
62 | GGATTGTTTA | 1 ± 0.014
63 | GGATTTAGAA | 0.975 ± 0.032
64 | GGATTTAGGC | 0.977 ± 0.029
65 | GGATTTAGGT | 0.994 ± 0.049
66 | GGATTTGGCC | 1 ± 0.043
67 | GGATTTGTTA | 0.983 ± 0.039
68 | GGATTTTAGC | 0.9835 ± 0.0024
69 | GGATTTTAGG | 0.997 ± 0.019
70 | GGATTTTGGC | 0.99 ± 0.019
71 | GGCAACGCGC | 0.997 ± 0.031
72 | GGCAACTTCT | 1.02 ± 0.011
73 | GGCAATAGGG | 1.14 ± 0.056
74 | GGCAATCGAA | 1.1145 ± 0.00045
75 | GGCAATGGTT | 1.1 ± 0.11

Row | Sequence | switch fluorescence ratio
76 | GGCACATAAT | 1.08 ± 0.087
77 | GGCACGGAGG | 0.989 ± 0.019
78 | GGCAGAAAAA | 0.9949 ± 0.0018
79 | GGCAGAGCTG | 1.016 ± 0.01
80 | GGCAGGGACT | 1 ± 0.033
81 | GGCAGGGATT | 1.01 ± 0.014
82 | GGCAGGGGGG | 1.04 ± 0.056
83 | GGCAGTCCTT | 1.005 ± 0.0044
84 | GGCAGTTGGG | 0.9868 ± 0.007
85 | GGCAGTTGTG | 0.986 ± 0.024
86 | GGCATAGAAT | 1.001 ± 0.0012
87 | GGCATAGATT | 0.976 ± 0.066
88 | GGCATAGGTA | 1.01 ± 0.012
89 | GGCATGCCAT | 0.9908 ± 0.0077
90 | GGCATGTGCG | 1.02 ± 0.031
91 | GGCATTAATT | 1.01 ± 0.048
92 | GGCATTATAT | 0.9984 ± 0.0058
93 | GGCATTGGGG | 1.03 ± 0.029
94 | GGCATTTGAC | 1.02 ± 0.006
95 | GGCATTTGTG | 1 ± 0.025
96 | GGCATTTTTG | 1.03 ± 0.015
97 | GGCCAAGGAT | 1.01 ± 0.028
98 | GGCCAAGTTG | 0.994 ± 0.017
99 | GGCCACGGGG | 0.991 ± 0.0054
100 | GGCCATCCAG | 1.01 ± 0.036
